According to patent publication US20090306338A1 (TRUSTEES OF TUFTS COLLEGE, published 2009):
Square brackets hold non-standard residues; d marks the D form. Ends that are not written are not given here. Asp(3,3-Me2) = CC(C)(C(=O)O)[C@H](N)C(=O)O

Legend:
[1] = biological target: human GLP-1 receptor (human) (UniProt P43220)
[2] = biological target: human GLP-1 receptor (human) (UniProt P43220); experiment: cell-based or functional assay
human GLP-1 receptor [3] = biological target: T1, human GLP-1 receptor (human, UniProt P43220 24-463); experiment: cell-based or functional assay
human GLP-1 receptor [4] = biological target: T1, human GLP-1 receptor
human GLP-1 receptor [5] = biological target: T1, human GLP-1 receptor; experiment: cell-based or functional assay; remark: listed apart in the source

human GLP-1 receptor (human), sequence (P43220 24-463): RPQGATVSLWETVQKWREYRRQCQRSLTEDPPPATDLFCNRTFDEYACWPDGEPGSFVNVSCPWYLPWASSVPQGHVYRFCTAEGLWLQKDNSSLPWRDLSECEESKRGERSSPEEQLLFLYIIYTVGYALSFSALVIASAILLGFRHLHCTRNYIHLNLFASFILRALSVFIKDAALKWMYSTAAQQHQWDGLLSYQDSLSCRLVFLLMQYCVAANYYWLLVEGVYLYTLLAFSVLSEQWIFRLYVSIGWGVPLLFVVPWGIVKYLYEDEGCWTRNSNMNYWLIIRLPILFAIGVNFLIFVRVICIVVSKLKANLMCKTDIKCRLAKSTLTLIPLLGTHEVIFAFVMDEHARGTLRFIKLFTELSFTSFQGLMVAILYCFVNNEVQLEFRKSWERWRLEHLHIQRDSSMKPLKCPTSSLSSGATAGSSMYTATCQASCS

Molecule: Exendin-4 (peptide; other documents disagree on this pair)
- IC50 [1]: 0.4 nM

Molecule: Exendin-4 (peptide)
- EC50 for receptor activation (cAMP) [2]: 0.1 to 0.5 nM

B1: P1732 (peptide)
peptide: HA[Asp(3,3-Me2)]GTFTSDVSSYLEGQAAKEFIAWLVKGRPSSGAPPPS
modifications: ends and bridges not checked
- EC50 (nM), cAMP production in COS-7 cells expressing the human GLP-1 receptor (human GLP-1 receptor [3]): 0.64 nM
- IC50 (human GLP-1 receptor [4]): 2.5 nM
- EC50 for receptor activation (cAMP) (human GLP-1 receptor [5]): 0.4 to 1.1 nM
